Data from US20220177587A1, “METHODS AND USES OF VARIANT CD80 FUSION PROTEINS AND RELATED CONSTRUCTS” (Alpine Immune Sciences, Inc., priority 2018, published 2022).
Read-outs that look alike come from different tables or passages of the source. Blank lines part the entries; values can stand above or below the substance they belong to.

Columns and labels:
[1] = target: human CTLA-4 (human) (UniProt P16410); assay: flow cytometry, CHO cells expressing huCTLA4
Target sequence in this assay (P16410 36-223): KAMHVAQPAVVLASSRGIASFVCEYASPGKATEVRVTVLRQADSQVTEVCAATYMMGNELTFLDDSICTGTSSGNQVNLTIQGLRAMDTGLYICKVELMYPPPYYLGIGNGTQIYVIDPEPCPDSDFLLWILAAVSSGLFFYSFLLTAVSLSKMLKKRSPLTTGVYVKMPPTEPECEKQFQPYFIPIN

[2] = target: CD28 (human) (UniProt P10747); assay: flow cytometry, Jurkat/IL2 reporter cells (endogenous CD28)
[3] = target: CD28 (human) (UniProt P10747); assay: flow cytometry, Jurkat cells (CD28)
[4] = target: human CTLA-4 (human) (UniProt P16410); assay: flow cytometry, CHO cells stably expressing CTLA4
Target sequence in this assay (P16410 36-223): as above

[5] = target: PD-L1 (human) (UniProt Q9NZQ7); assay: flow cytometry, CHO cells stably expressing PD-L1
Target sequence in this assay (Q9NZQ7 19-290): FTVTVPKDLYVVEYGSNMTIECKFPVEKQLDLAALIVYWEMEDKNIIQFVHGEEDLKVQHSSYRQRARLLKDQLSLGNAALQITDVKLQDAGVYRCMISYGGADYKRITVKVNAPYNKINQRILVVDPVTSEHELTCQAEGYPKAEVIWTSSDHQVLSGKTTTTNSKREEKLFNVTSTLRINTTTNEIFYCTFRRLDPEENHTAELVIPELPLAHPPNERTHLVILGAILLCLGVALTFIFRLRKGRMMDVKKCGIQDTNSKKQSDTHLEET

[6] = target: CD28 (human) (UniProt P10747); assay: flow cytometry, Expi293F cells transfected with CD28
[7] = target: PD-L1 (human) (UniProt Q9NZQ7); assay: flow cytometry, Expi293F cells transfected with PD-L1
[8] = target: human CTLA-4 (human) (UniProt P16410); assay: flow cytometry, Expi293F cells transfected with CTLA-4
[9] = target: CD28 (human) (UniProt P10747)
[10] = target: PD-L1 (human) (UniProt Q9NZQ7)
Target sequence in this assay (Q9NZQ7 19-290 limits assumed): as the sequence (Q9NZQ7 19-290) above

[11] = target: CD28 (human) (UniProt P10747); assay: flow cytometry, Jurkat cells (CD28); remark: listed apart in the source
[12] = target: human CTLA-4 (human) (UniProt P16410); assay: flow cytometry, CHO cells stably expressing CTLA4; remark: listed apart in the source
Target sequence in this assay (P16410 36-223): as the sequence (P16410 36-223) above

[13] = target: PD-L1 (human) (UniProt Q9NZQ7); assay: flow cytometry, CHO cells stably expressing PD-L1; remark: listed apart in the source
Target sequence in this assay (Q9NZQ7 19-290): as the sequence (Q9NZQ7 19-290) above

[14] = target: PD-L1 (human) (UniProt Q9NZQ7); assay: flow cytometry, MFI on PD-L1 cells over MFI on CD28 cells
Target sequence in this assay (Q9NZQ7 19-290): as above

[15] = target: CD28 (human) (UniProt P10747); remark: listed apart in the source
[16] = target: PD-L1 (human) (UniProt Q9NZQ7); remark: listed apart in the source
Target sequence in this assay (Q9NZQ7 19-290): as above

[17] = target: CD28 (human) (UniProt P10747); remark: listed apart in the source
[18] = target: CD28 (human) (UniProt P10747); remark: listed apart in the source
[19] = target: PD-L1 (human) (UniProt Q9NZQ7); remark: listed apart in the source
Target sequence in this assay (Q9NZQ7 19-290): as above

[20] = target: PD-L1 (human) (UniProt Q9NZQ7); assay: flow cytometry, CHO cells expressing huPD-L1
Target sequence in this assay (Q9NZQ7 19-290): as above

[21] = target: CD28 (human) (UniProt P10747); assay: flow cytometry, Jurkat cells (CD28); remark: listed apart in the source
[22] = target: human CTLA-4 (human) (UniProt P16410); assay: flow cytometry, CHO cells expressing CTLA4
Target sequence in this assay (P16410 36-223): as the sequence (P16410 36-223) above

[23] = target: PD-L1 (human) (UniProt Q9NZQ7); assay: flow cytometry, CHO cells expressing PD-L1
[24] = target: human CTLA-4 (human) (UniProt P16410); assay: flow cytometry, CHO cells stably expressing CTLA4; remark: listed apart in the source
Target sequence in this assay (P16410 36-223): as above

[25] = target: PD-L1 (human) (UniProt Q9NZQ7); assay: flow cytometry, CHO cells stably expressing PD-L1; remark: listed apart in the source
[26] = target: human CTLA-4 (huCTLA4), on stably transduced CHO cells (human) (UniProt P16410); assay: flow cytometry on CHO cells stably expressing huCTLA4, 33.3 nM Fc fusion, PE anti-human Fc
Sequence of human CTLA-4 (huCTLA4), on stably transduced CHO cells (human) (P16410 36-223): as above

[27] = target: human PD-L1 (huPD-L1), on stably transduced CHO cells (human) (UniProt Q9NZQ7); assay: flow cytometry on CHO cells stably expressing huPD-L1, 33.3 nM Fc fusion, PE anti-human Fc
Sequence of human PD-L1 (huPD-L1), on stably transduced CHO cells (human) (Q9NZQ7 19-290): as the sequence (Q9NZQ7 19-290) above

[28] = target: CD28, endogenously expressed on Jurkat/IL2 reporter cells (human) (UniProt P10747); assay: flow cytometry on Jurkat/IL2 reporter cells (endogenous CD28), 33.3 nM Fc fusion, PE anti-human Fc

Sequence of CD80 WT IgV-Fc (Fc fusion) (chain): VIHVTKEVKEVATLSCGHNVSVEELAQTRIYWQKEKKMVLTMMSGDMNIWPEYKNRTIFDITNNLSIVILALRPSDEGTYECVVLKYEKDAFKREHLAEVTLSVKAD

MFI at 33.3 nM [2]: 266 MFI
Substance: variant CD80 IgV-Fc S15P/Q33L/E35D/M47L/L85Q (Fc fusion)

Jurkat/IL2 reporter RLU at 50 nM, K562/OKT3/PD-L1 aAPC [15]: 2640 RLU
Jurkat/IL2 reporter RLU at 50 nM, K562/OKT3 aAPC without PD-L1 [15]: 1330 RLU
Jurkat/IL2 reporter RLU at 50 nM, K562/OKT3/PD-L1 aAPC [16]: 2640 RLU
Substance: CD80 A26E/E35D/M47L/L85Q IgV-Fc (effector) (Fc fusion)

MFI at 33.3 nM [1]: 226000 MFI
MFI at 33.3 nM [20]: 693 MFI
Substance: variant CD80 IgV-Fc E35D/M47V/T62A/A71D/K93E (Fc fusion)

MFI at 33.3 nM [1]: 3560 MFI
MFI at 33.3 nM [2]: 303 MFI
Substance: variant CD80 IgV-Fc Q33R/E35D/D46E/M47I (Fc fusion)

Jurkat/IL2 reporter RLU at 50 nM, K562/OKT3/PD-L1 aAPC [15]: 805 RLU
Jurkat/IL2 reporter RLU at 50 nM, K562/OKT3 aAPC without PD-L1 [15]: 1510 RLU
Jurkat/IL2 reporter RLU at 50 nM, K562/OKT3/PD-L1 aAPC [16]: 805 RLU
Substance: CD80 E35G/K54E/A71D/L72P IgV-Fc (effector) (Fc fusion)

MFI at 33.3 nM [1]: 2680 MFI
MFI at 33.3 nM [20]: 21400 MFI
Substance: variant CD80 IgV-Fc Q33R/E35D/M47V/N48K/L85M/F92L (Fc fusion)

Second part, the substance before the results:

Substance: variant CD80 IgV-Fc E35D/M47L/A71G/L97Q (Fc fusion)
MFI at 33.3 nM [1]: 226000 MFI
MFI at 33.3 nM [2]: 300 MFI

Substance: CD80 IgV-Fc H18Y/E35D/V68M/L85M/R94Q (Fc fusion)
Fold change to WT CD80 [3]: 23.3 fold
MFI at 33.3 nM [3]: 962 MFI
MFI at 33.3 nM [4]: 22000 MFI
Fold change to WT CD80 [5]: 131 fold
MFI at 33.3 nM [5]: 9280 MFI

Substance: CD80 R29H/E52G/L70R/E88G/A91G/T130A ECD-Fc (Fc fusion)
MFI [6]: 100 MFI
MFI [7]: 5 MFI
parental ratio [7]: 0.08
MFI [8]: 119 MFI
parental ratio [8]: 0.57

Substance: CD80 T28S/L70Q/A91G/E95K/I118V/T120S/I126V/T130A/K169E ECD-Fc (Fc fusion)
MFI [6]: 32 MFI
parental ratio [6]: 0.34
MFI [7]: 6 MFI
parental ratio [7]: 0.08
MFI [8]: 65 MFI
parental ratio [8]: 0.31

Substance: CD80 K36E/I67T/L70Q/A91G/I118V/T120S/T130A/N152T ECD-Fc (Fc fusion)
MFI [6]: 8 MFI

Substance: variant CD80 IgV-Fc A26E/E35D/V68M/A71G/D90G (Fc fusion)
IL-2 luciferase reporter, fold increase over WT CD80-IgV-Fc at 5.0 nM [9]: 2.34 fold
IL-2 luciferase reporter, fold increase over WT CD80-IgV-Fc at 5.0 nM [10]: 2.34 fold
Fold change to WT CD80 [11]: 47.9 fold
MFI at 33.3 nM [11]: 2100 MFI
Fold change to WT CD80 [12]: 17.1 fold
MFI at 33.3 nM [12]: 23300 MFI
Fold change to WT CD80 [13]: 608 fold
MFI at 33.3 nM [13]: 26500 MFI
Ratio of PDL1:CD28 [14]: 12.6

Substance: CD80 IgV-Fc H18Y/E35D/M47L/V68M/E95V/L97Q (Fc fusion)
MFI at 33.3 nM [3]: 2600 MFI
MFI at 33.3 nM [4]: 18000 MFI
MFI at 33.3 nM [5]: 9630 MFI

Substance: CD80 E35D/M43L/L70M IgV-Fc (effector) (Fc fusion)
Jurkat/IL2 reporter RLU at 50 nM, K562/OKT3/PD-L1 aAPC [15]: 2780 RLU
Jurkat/IL2 reporter RLU at 50 nM, K562/OKT3 aAPC without PD-L1 [15]: 1570 RLU
Jurkat/IL2 reporter RLU at 50 nM, K562/OKT3/PD-L1 aAPC [16]: 2780 RLU
IL-2 release, primary T cells + K562/OKT3 (No PD-L1), 100 nM [17]: 10500

Substance: CD80 E35D/M47I IgV-Fc (effector) (Fc fusion)
Jurkat/IL2 reporter RLU at 50 nM, K562/OKT3/PD-L1 aAPC [15]: 5700 RLU
Jurkat/IL2 reporter RLU at 50 nM, K562/OKT3 aAPC without PD-L1 [15]: 7140 RLU
Jurkat/IL2 reporter RLU at 50 nM, K562/OKT3/PD-L1 aAPC [16]: 5700 RLU
IL-2 release, primary T cells + K562/OKT3 (No PD-L1), 100 nM [17]: 27200

Substance: CD80 A71D/L72V/E95K IgV-Fc (inert) (Fc fusion)
Jurkat/IL2 reporter RLU at 50 nM, CHO/OKT3/PD-L1 aAPC [18]: 755 RLU
Jurkat/IL2 reporter RLU at 50 nM, CHO/OKT3 aAPC without PD-L1 [18]: 644 RLU
Jurkat/IL2 reporter RLU at 50 nM, CHO/OKT3/PD-L1 aAPC [19]: 755 RLU

Substance: CD80 R29H/E52G/D90N/I118V/T120S/T130A ECD-Fc (Fc fusion)
MFI [6]: 66 MFI
MFI [8]: 141 MFI

Substance: CD80 L65H/D90G/T110A/F116L ECD-Fc (Fc fusion)
MFI [6]: 33 MFI
MFI [8]: 121 MFI

Substance: CD80 WT IgV-Fc (Fc fusion)
MFI at 33.3 nM [21]: 95 MFI
MFI at 33.3 nM ([21]; record 2): 41 MFI
MFI at 33.3 nM [3]: 41.2 MFI
MFI at 33.3 nM [11]: 43.9 MFI
MFI at 33.3 nM [22]: 26400 MFI
MFI at 33.3 nM [23]: 44 MFI
MFI at 33.3 nM [24]: 1030 MFI
MFI at 33.3 nM [25]: 83 MFI
MFI at 33.3 nM [4]: 1040 MFI
MFI at 33.3 nM [5]: 70.9 MFI
MFI at 33.3 nM [12]: 1360 MFI
MFI at 33.3 nM [13]: 43.6 MFI
MFI at 33.3 nM [26]: 1920 MFI
MFI at 33.3 nM [27]: 70.3 MFI
MFI at 33.3 nM [28]: 66 MFI

Substance: variant CD80 IgV-Fc A26E/E35D/M43I/M47L/L85Q/K86E/R94W (Fc fusion)
MFI at 33.3 nM [1]: 2950 MFI
MFI at 33.3 nM [2]: 314 MFI
